The results in this text go back to paper PMC11847541, “Liver fatty acid binding protein FABP1 transfers substrates to cytochrome P450 4A11 for catalysis” (The Journal of Biological Chemistry, 2025).

The data set concerns the target T1, P450 4A11 (Homo sapiens, UniProt Q02928).
T1 construct: made in house; host or cells: E. coli
T1 sequence (Q02928 5-519): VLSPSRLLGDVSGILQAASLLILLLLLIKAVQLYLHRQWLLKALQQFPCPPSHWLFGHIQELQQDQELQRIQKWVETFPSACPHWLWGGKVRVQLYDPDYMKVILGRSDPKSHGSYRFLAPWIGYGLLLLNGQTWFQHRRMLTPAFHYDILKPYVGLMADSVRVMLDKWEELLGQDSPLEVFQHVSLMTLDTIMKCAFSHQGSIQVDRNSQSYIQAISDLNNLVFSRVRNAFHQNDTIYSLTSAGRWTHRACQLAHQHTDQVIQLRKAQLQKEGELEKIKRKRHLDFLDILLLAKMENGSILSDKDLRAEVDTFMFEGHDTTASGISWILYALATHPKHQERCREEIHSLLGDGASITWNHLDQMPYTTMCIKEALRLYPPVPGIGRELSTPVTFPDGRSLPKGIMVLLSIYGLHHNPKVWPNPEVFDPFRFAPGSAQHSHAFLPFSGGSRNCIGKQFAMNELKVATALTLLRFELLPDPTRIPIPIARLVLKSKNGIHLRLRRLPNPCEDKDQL
T1 sequence (P07148 with tags, fused parts or gaps partner): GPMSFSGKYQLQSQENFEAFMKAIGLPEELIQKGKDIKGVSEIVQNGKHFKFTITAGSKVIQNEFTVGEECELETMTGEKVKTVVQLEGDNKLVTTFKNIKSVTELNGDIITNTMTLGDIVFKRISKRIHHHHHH
In words: Fluorescence titration of Alexa-FABP1 with P450 4A11. To be noted: 10 mM potassium phosphate pH 7.4, quadratic fit. Type of data set: binding. On the procedure: The Alexa-FABP1 construct was tested for P450 binding in a fluorescence titration with P450 4A11.
Figure 10 Binding of Alexa-FABP1 to P450 4A11.A, equilibrium binding titration of Alexa-FABP1 (25 nM) with P450 4A11 as the titrant (0–50 nM). Titrations were performed in 10 mM (closed circles) or 100 mM (open circles) potassium phosphate buffer (pH 7.4). A control reaction was performed with P450 101A1 (P450cam) in 100 mM KPhos (open squares). The change in fluorescence upon protein–protein binding was normalized to the corresponding change in a buffer control. […] Each data point corresponds to one independent replicate, ≥3 biological replicates were collected to confirm the effect. B, kinetics of binding of Alexa-FABP1 (0.125 μM) and P450 4A11 (0.125 μM). Six traces were averaged, and the data were fit to a single exponential curve (in red). The extracted binding rate was 2.0 ± 0.2 s^−1. FABP1, fatty acid binding protein.
Alexa-FABP1 (25 nM [estimated by an asborbance at 280 nm prior to conjugation reaction, accounting for dilution, and assuming no protein loss during the reaction]) was prepared in potassium phosphate buffer (10 mM or 100 mM, pH 7.4) in a 1 ml glass cuvette. A buffer baseline was recorded using an OLIS DM-45 spectrofluorometer (1.24 mm slit width) with excitation wavelength of 470 nm and scanning emission spectra from 500 to 600 nm. P450 4A11 (stored in 100 mM potassium phosphate buffer [pH 7.4] containing 20% glycerol) was titrated (0–50 nM) into the Alexa-FABP1 solution. The same experiment was repeated but with the P450 4A11 buffer used as the titrant to normalize the data for any solvent effect. […] As stimulation was observed by the P450 interaction, the value of one was subtracted from the normalized fluorescence values so that the curve would have an (x, y) intercept of (0, 0). Kd values were calculated fitting plots of the normalized fluorescence at emission maximum versus concentration of P450 4A11 using a quadratic equation in GraphPad Prism software.

The substance “FABP1: delipidated recombinant liver fatty acid binding protein with C-terminal hexahistidine tag” had an equilibrium dissociation constant (Kd) of around 3 nM.
